The values that follow come from patent publication US20250026827A1 (Alector, published 2025).

Where a chain is given by its changes, count along the chain named.

The labels stand for the following.
T1: mouse SIRPβ1 on CHO cells (mouse)
T1 construct: Whole entry
T1 chain: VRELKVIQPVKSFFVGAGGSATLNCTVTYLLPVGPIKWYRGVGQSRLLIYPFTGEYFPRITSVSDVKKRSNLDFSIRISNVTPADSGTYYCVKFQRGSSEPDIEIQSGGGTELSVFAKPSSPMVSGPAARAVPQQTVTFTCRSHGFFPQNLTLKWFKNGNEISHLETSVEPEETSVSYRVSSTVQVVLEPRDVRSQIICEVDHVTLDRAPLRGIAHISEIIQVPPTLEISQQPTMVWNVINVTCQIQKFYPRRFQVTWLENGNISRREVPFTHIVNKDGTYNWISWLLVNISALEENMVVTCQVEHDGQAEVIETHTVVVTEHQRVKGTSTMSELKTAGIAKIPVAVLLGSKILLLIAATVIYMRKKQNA

B1: SB-40-20 Fab (Fab, V domains shown)
VH: QVQLVQSGAEVKKPGASVKVSCKASGYTFTSFYISWVRQAPGQGLEWMGIINPSSGHTNYAQKLQGRVTMTTDTSTSTAYMELSSLRSEDTAVYYCARDTGEYSYSPHGMDVWGQGTTVTVSS
VL: EIVLTQSPATLSLSPGERATLSCRASQSVSSYLAWYQQKPGQAPRLLIYDSSNRATGIPARFSGSGSGTDFTLTISSLEPEDFAVYYCQQRDEHPPWTFGGGTKVEIK
notes: Fab by papain digestion
B2: SB-40-21 Fab (Fab, V domains shown)
VH: B1 VH with F32Y, I34M, S35V, H57D, L64F, T72R, T76I, S85R, E89D
VL: B1 VL
notes: Fab by papain digestion
B3: SB-40-18 Fab (Fab, V domains shown)
VH: QVQLVQSGAEVKKPGASVKVSCKASGYTFTSYYMAWVRQAPGQRLEWMGWINPAVGATIYSQKFQGRVTITRDTSASTAYMELSSLRSEDTAVYYCARDTGEYSYSPHGMDVWGQGTTVTVSS
VL: B1 VL
notes: Fab by papain digestion
B4: SB-40-19 Fab (Fab, V domains shown)
VH: B1 VH with F32Y, I34M, S35V, H57A, L64F, S84R, E89D
VL: B1 VL
notes: Fab by papain digestion
B5: SB-2-7 Fab (Fab, V domains shown)
VH: EVQLLESGGGLVQPGGSLRLSCAASGFTFARYGMHWVRQAPGKGLEWVSAISGLAGPTYADSVKGRFTISRDNSKNTLYLQMNSLRAEDTAVYYCARDQTAAAAIWGMDVWGQGTTVTVSS
VL: EVVLTQSPGTLSLSPGERATLSCRASQSVSSSYLAWYQQKPGQAPRLLIYGASSRATGIPDRFSGSGSGTDFTLTISRLEPEDFAVYYCQQSSSHPFTFGGGTKVEIK
notes: Fab by papain digestion
B6: SB-2-10 Fab (Fab, V domains shown)
VH: B5 VH with A30G, R31S, P57Q
VL: B5 VL with V2I
notes: Fab by papain digestion
B7: SB-2-9 Fab (Fab, V domains shown)
VH: QVQLVESGGGVVQPGRSLRLSCAASGFTFKTYGMHWVRQAPGKGLEWVAHIWYEGSNKVYADSVKGRFTISRDNSKNTLYLQMNSLRAEDTAVYYCARDQTAAAAIWGMDVWGQGTTVTVSS
VL: B5 VL
notes: Fab by papain digestion
B8: SB-2-8 Fab (Fab, V domains shown)
VH: B5 VH with E1Q, L5V, L11V, G16R, A30L, R31D, G53A, L54F, P57S
VL: B5 VL
notes: Fab by papain digestion
B9: SB-1-2 Fab (Fab, V domains shown)
VH: QVQLVESGGGVVQPGRSLRLSCAASGFTFGSFGMNWVRQAPGKGLEWVSAITASGGSTFYADSVKGRFTISRDNSKNTLYLQMNSLRAEDTAVYYCAKDFTEVVGWLGMDVWGQGTTVTVSS
VL: B5 VL with V2I, L4M, Q91L, S92L, S93G, H95S, F97R
notes: Fab by papain digestion
B10: SB-2-11 Fab (Fab, V domains shown)
VH: B5 VH with E1Q, L5V, A103W, A104G
VL: B5 VL with V2I
notes: Fab by papain digestion
B11: SB-1-5 Fab (Fab, V domains shown)
VH: B9 VH with G30S, S31A, F32Y, T52S, G56R
VL: B5 VL with V2I, L4M, Q91L, S92L, S93G, H95S, F97R
notes: Fab by papain digestion
B12: SB-1-3 Fab (Fab, V domains shown)
VH: B9 VH with Q1E, V11L, Q13K, R16G, G30S, S31A, F32Y, A53S, G56R, F59Y
VL: B5 VL with V2I, L4M, Q91L, S92L, S93G, H95S, F97R
notes: Fab by papain digestion
B13: SB-1-4 Fab (Fab, V domains shown)
VH: B9 VH with R16G, G30S, S31A, F32Y, T52R, S57A, F59Y
VL: B5 VL with V2I, L4M, Q91L, S92L, S93G, H95S, F97R
notes: Fab by papain digestion
B14: SB-40-19 (antibody, V domains shown)
VH: B1 VH with F32Y, I34M, S35V, H57A, L64F, S84R, E89D
VL: B1 VL
notes: IgG
B15: SB-40-18 (antibody, V domains shown)
VH: B3 VH
VL: B1 VL
notes: IgG
B16: SB-1-4 (antibody, V domains shown)
VH: B9 VH with R16G, G30S, S31A, F32Y, T52R, S57A, F59Y
VL: B5 VL with V2I, L4M, Q91L, S92L, S93G, H95S, F97R
notes: IgG
B17: SB-2-9 (antibody, V domains shown)
VH: B7 VH
VL: B5 VL
notes: IgG
B18: SB-1-5 (antibody, V domains shown)
VH: B9 VH with G30S, S31A, F32Y, T52S, G56R
VL: B5 VL with V2I, L4M, Q91L, S92L, S93G, H95S, F97R
notes: IgG
B19: SB-8-14 (antibody, V domains shown)
VH: QVQLQESGPGLVKPSETLSLTCAVSGYSISPHYYWGWIRQPPGKGLEWIGSIYHSGHTYYNPSLKSRVTISVDTSKNQFSLKLSSVTAADTAVYYCARGGAMTPAGMDVWGQGTTVTVSS
VL: B5 VL with V2I, L4M, S54N, S92V, S93Y, H95S, F97Y
notes: IgG
B20: SB-8-16 (antibody, V domains shown)
VH: B19 VH with P31A, Y53F, G99A
VL: B5 VL with V2I, L4M, S54N, S92V, S93Y, H95S, F97Y
notes: IgG
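Wherever FOB is given: antibody binding to cells detected with a PE-labelled secondary antibody, given as mean fluorescence intensity relative to background.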

T3 sequence (O00241 30-398): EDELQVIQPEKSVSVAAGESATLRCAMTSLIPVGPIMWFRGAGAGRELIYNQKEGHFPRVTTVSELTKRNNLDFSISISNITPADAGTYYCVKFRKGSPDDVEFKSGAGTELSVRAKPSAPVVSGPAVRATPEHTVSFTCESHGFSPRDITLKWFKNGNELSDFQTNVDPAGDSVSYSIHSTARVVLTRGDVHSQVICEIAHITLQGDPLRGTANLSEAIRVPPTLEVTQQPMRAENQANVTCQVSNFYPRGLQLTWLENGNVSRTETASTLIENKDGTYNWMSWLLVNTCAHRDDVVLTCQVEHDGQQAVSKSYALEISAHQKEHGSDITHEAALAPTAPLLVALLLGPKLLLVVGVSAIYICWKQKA

The target in one test is T2, human SIRPβ1 domain 1 (D1) Fc fusion (human, UniProt O00241 30-148).
T2 construct: Made in HEK293/T cells with a heterologous signal peptide; also called Human SIRPβ1 D1-Fc; Human SIRPβ1-Fc; not shown: C-terminal human IgG1 Fc
T2 sequence (O00241 30-148 limits assumed): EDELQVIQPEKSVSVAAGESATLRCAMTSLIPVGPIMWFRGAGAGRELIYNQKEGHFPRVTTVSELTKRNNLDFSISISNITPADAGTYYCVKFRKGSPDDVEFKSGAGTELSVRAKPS
Put plainly: Octet, Fab monovalent. (BLI is a label-free optical method that tracks binding on a fibre tip over time.)
A word on the Kd: it is a measure of binding affinity in units of concentration. Take B1: the Kd was 9.41 nM.

For B2, the affinity, expressed as Kd, was 40.4 nM.

Regarding B3, the Kd is 18.1 nM.

Consider B4, for which the Kd was 44.8 nM.

In turn, B5 had a Kd of 6.21 nM.

The molecule B6 yielded a Kd of 12.3 nM.

The molecule B7 had a Kd of 19.2 nM.

In the case of B8, the Kd was determined as 5.02 nM.

With B9, the dissociation constant Kd turned out to be 37.8 nM.

Molecule B10 showed a Kd of 4.4 nM.

Turning to B11, the Kd was 82.4 nM.

On to B12, for which the Kd is 45.4 nM.

B13 came in with a Kd of 43.3 nM.

Another test concerns the target T3, human SIRPβ1 isoform 1 on cells (human, UniProt O00241 30-398).
T3 construct: On CHO cells (low level), on BWZ/BW5147.G.1.4 cells (reporter cells co-express human DAP12) or on primary human myeloid cells; also called huSIRPβ1; BWZ-huSIRPβ1
The test is described as follows: flow cytometry.
Description: (§1) Cells were then washed twice and incubated in 100 ul FACS buffer containing 0.5 μg/ml PE-conjugated secondary antibody for 30 minutes on ice. Cells were washed twice in cold FACS buffer and acquired on a BD FACS Canto. Data analysis and calculation of mean fluorescence intensity (MFI) values or 00 positive cells was performed with FlowJo (TreeStar) software version 10.0.7.
(§2) Given the high sequence similarity between receptors of the SIRPβ family, anti-SIRPβ1 antibodies were also screened for cross-reactivity to human SIRPα.
For the molecule B14, the FOB is 3 fold over background.

In turn, B15 gave an FOB of 4 fold over background.

As for B16, the FOB is 3 fold over background.

The molecule B17 gave an FOB of 4 fold over background.

On to B18, for which the FOB was determined as 3 fold over background.

Regarding B19, the FOB is 7 fold over background.

Take B20: the FOB was found to be 9 fold over background.

The next test concerns the target T1, mouse SIRPβ1 on CHO cells. The test is described as follows: flow cytometry. On the technique in general: A flow cytometer gives signals particle by particle.
Description: as §1, §2
With B14, the FOB was determined as 2 fold over background.

B15 had an FOB of 2 fold over background.

The molecule B16 showed an FOB of 1 fold over background.

The molecule B17 registered an FOB of 2 fold over background.

B18 displayed an FOB of 2 fold over background.

The molecule B19 had an FOB of 1 fold over background.

With B20, the FOB is 2 fold over background.

The target of the next test is T4, human SIRPα on cells (human, UniProt P78324 31-504).
T4 construct: Whole entry
Put plainly: flow cytometry.
Description: as §1, §2
Regarding B14, the FOB was found to be 1 fold over background.

B15 returned an FOB of 1 fold over background.

As to B16, the FOB came out at 1 fold over background.

Molecule B17 displayed an FOB of 1 fold over background.

For the molecule B18, the FOB came to 1 fold over background.

B20 came in with an FOB of 1 fold over background.

Another test concerns the target T1, mouse SIRPβ1 on CHO cells. The test is described as follows: flow cytometry. The source holds these as a separate data set.
As for B14, the binding result is “no binding (tested: 1 ug/ml)”.

Regarding B15, the binding result was “no binding (tested: 1 ug/ml)”.

As to B16, the binding result is listed as “no binding (tested: 1 ug/ml)”.

Take B17: the binding result is given as “no binding (tested: 1 ug/ml)”.

Take B18: the binding result is given as “no binding (tested: 1 ug/ml)”.

As for B19, the binding result was “no binding (tested: 1 ug/ml)”.

Consider B20, for which the binding result is “no binding (tested: 1 ug/ml)”.

The next test deals with T4, human SIRPα on cells. The test is described as follows: flow cytometry. This is another data set of the same source.
Take B14: the binding result is “no binding (tested: 1 ug/ml)”.

As for B15, the binding result is “no binding (tested: 1 ug/ml)”.

For B16, the binding result is listed as “no binding (tested: 1 ug/ml)”.

In the case of B17, the binding result is on record as “no binding (tested: 1 ug/ml)”.

As for B18, the binding result is “no binding (tested: 1 ug/ml)”.

On to B20, for which the binding result is “no binding (tested: 1 ug/ml)”.

For the next test, the target named is T5, human SIRPα domain 1 (D1) Fc fusion (human, UniProt P78324 32-149).
T5 construct: also called human SIRPα D1-Fc; Human SIRPα Fc; not shown: C-terminal human IgG1 Fc
The test is described as follows: Octet, IgG avid.
As for B14, the binding result is listed as “no binding (tested: 100 nM)”.

On to B15, for which the binding result is listed as “no binding (tested: 100 nM)”.

With B16, the binding result is on record as “no binding (tested: 100 nM)”.

As to B17, the binding result is reported as “no binding (tested: 100 nM)”.

For B18, the binding result is recorded as “no binding (tested: 100 nM)”.

B19 displayed a Kd of 18.3 nM.

As to B20, the binding result was “no binding (tested: 100 nM)”.

The target in the next test is T3, human SIRPβ1 isoform 1 on cells. The test is described as follows: cell binding titration; target not given.
The EC50 is the concentration that produces a half-maximal response. B14 returned an EC50 of 0.713 nM.

B15: it took 0.32 nM to reach a half-maximal effect (EC50).

For the molecule B16, it took 0.073 nM to reach a half-maximal effect (EC50).

B17 had an EC50 of 0.469 nM.

The molecule B18 came in with an EC50 of 0.038 nM.

Turning to B19, the EC50 is 0.304 nM.

For B20, the concentration for a half-maximal effect (EC50) stood at 0.147 nM.
